Source: patent publication US20050271676A1, “Inducing cellular immune responses to human immunodeficiency virus-1 using peptide and nucleic acid compositions” (Epimmune Inc., priority 1993, published 2005)

Experiments:
HLA-A*3101 = HLA-A*3101 (Homo sapiens, UniProt P04439, A270S/D185E/E176V/E277Q/F33T/G231S/G80R/H175R/I121M/I218V/I322F/K168Q/L300P/L318F/M331R/P217A/Q94H/R138Q/T323A/T345S/T97I/V358M); test: purified HLA class I binding assay, A*3101
HLA-A*6801 = HLA-A*6801 (Homo sapiens, UniProt P04439, A269V/D185E/E176V/E277Q/E87N/F33Y/G231S/I121M/I166T/I218V/L180W/L300P/L318F/N151K/P208A/P217A/Q86R/R169H/T345S); test: purified HLA class I binding assay, A*6801
HLA-A*1101 = HLA-A*1101 (Homo sapiens, UniProt P04439, A114D/D185E/E176A/F33Y/L180Q/S129P/T187R); test: purified HLA class I binding assay, A*1101
HLA-A*0301 = biological target: T1, HLA-A*0301 (Homo sapiens, UniProt P04439); test: purified HLA class I binding assay, A*0301
T1 construct: endogenous in cells; host or cells: GM3107

HLA-A*2402 = HLA-A*2402 (Homo sapiens, UniProt P04439, D101N/D140Y/D185E/E176V/E190D/F33S/G103R/G107R/I119L/I121M/I306V/K335N/L105A/L180Q/L300P/N151K/N90K/Q86E/Q94H/R106L/R138H/R89G/T104I/T345S/V100E/W191G/Y123F); test: purified HLA class I binding assay, A*2402
HLA-DRB1*0802 (DR8w2) = biological target: T2, HLA-DRB1*0802 (DR8w2) (Homo sapiens, UniProt P01903+P01911, A100R/A103L/A169T/F76Y/H45Y/I96F/K41T/L162R/M171V/P40S/Q125H/Q178H/Q39Y/Q99D/R218S/R42G/S66Y/V115G/W38E); test: biochemical; type: binding
T2 construct: endogenous in cells

HLA-DRB1*0901 (DR9) = biological target: T3, HLA-DRB1*0901 (DR9) (Homo sapiens, UniProt P01903+P01911, A100R/A103E/D57H/D86V/F55Y/F60I/F76Y/I96F/K127E/L162R/M171V/P40D/Q125H/Q99R/R33Q/R42F/S133A/S66N/T210M/V115G/W38K/Y107V/Y59G/Y89S); test: biochemical; type: binding
T3 construct: endogenous in cells

HLA-DRB1*1302 (DR6w19) = HLA-DRB1*1302 (DR6w19) (Homo sapiens, UniProt P01903+P01911, A100E/A169T/K41T/L162R/M171V/P40S/Q125H/Q178H/Q39Y/Q99D/R42S/S66N/T262R/V115G/W38E/Y61H); test: purified HLA class II binding assay, DRB1*1302 (DR6w19); conditions: Table XXb, HIV DR 3a motif peptides
HLA-DRB1*0701 (DR7) = biological target: T4, HLA-DRB1*0701 (DR7) (Homo sapiens, UniProt P01903+P01911, A100R/A102G/A103Q/D57E/D86V/E43K/F76Y/K127E/L162R/M171V/P40G/Q125H/Q99D/R33Q/R42Y/R54Q/S133A/S66F/T210M/V115G/Y107V/Y59L/Y89S); test: biochemical; type: binding
T4 construct: endogenous in cells; host or cells: Pitout

HLA-DRB1*0401 (DR4w4) = biological target: T5, HLA-DRB1*0401 (DR4w4) (Homo sapiens, UniProt P01903+P01911, A100K/A169T/F76Y/I96L/K127E/L162R/M171V/N62H/P40V/Q125Y/R42H/S133A/S149N/S66Y/V115G/V209L/W38E); test: purified HLA class II binding assay, DRB1*0401 (DR4w4); conditions: HIV DR super motif peptides; unit not given
T5 construct: endogenous in cells; host or cells: Preiss

HLA-DRB5*0101 (DR2w2β2) = biological target: T6, HLA-DRB5*0101 (DR2w2β2) (Homo sapiens, UniProt P01903+Q30154); test: biochemical; type: binding
T6 construct: expressed in transfected cells

HLA-DRB1*1101 (DR5w11) = biological target: T7, HLA-DRB1*1101 (DR5w11) (Homo sapiens, UniProt P01903+P01911, A100R/A169T/A87E/I96F/K41T/L162R/M171V/P40S/Q125H/Q178H/Q39Y/Q99D/R42S/S66Y/T262R/V115G/W38E); test: biochemical; type: binding
T7 construct: endogenous in cells

HLA-A*0201 = HLA-A*0201 (Homo sapiens, UniProt P04439, D140Y/D185E/D98H/E176V/E277Q/G131W/G231S/I119V/I121R/I166T/I218V/L300P/L318F/N151K/N90K/P208A/P217A/Q86G/Q94H/R138H/R169H/T345S); test: purified HLA class I binding assay, A*0201; conditions: HIV A02 super motif peptides, Table VIII; unit not given
[1] = Table IX, HIV A03 super motif peptides, binding value, unit not given
[2] = HIV A03 supermotif peptides, Table IX, unit not given
[3] = HIV A03 motif peptides, Table XVI, unit not given
[4] = HIV A03 supermotif peptides, binding value, no unit given
[5] = Table XVII, HIV A11 motif peptides, binding value A*1101, unit not given

T7 sequence (P01903 26-254, other chains not shown): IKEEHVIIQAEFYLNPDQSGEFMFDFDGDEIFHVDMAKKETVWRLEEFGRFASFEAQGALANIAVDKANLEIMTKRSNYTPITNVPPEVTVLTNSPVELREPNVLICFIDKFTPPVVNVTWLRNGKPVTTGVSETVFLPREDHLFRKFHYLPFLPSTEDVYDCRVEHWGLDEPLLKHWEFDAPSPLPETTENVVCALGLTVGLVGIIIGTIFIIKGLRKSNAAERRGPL
T5 sequence (P01903 26-254 partner, other chains not shown): as the sequence (P01903 26-254, other chains not shown) above

Sequence: DIQIKELQK
- A*3101 binding information (HLA-A*3101; [1]): 0.0006
- A*6801 binding information (HLA-A*6801; [1]): 0.0001
- A*1101 (binding information) (HLA-A*1101; [1]): 0.0006
- A*0301 binding information (HLA-A*0301; [1]): 0.0009

Sequence: YWQATWIPE
- A*2401 (binding information) (HLA-A*2402; HIV A24 motif peptides, purified HLA-A24 molecule, unit not given): 0.0660
- A*2401 (binding information) (HLA-A*2402; HIV A24 supermotif peptides, binding value printed without unit in Table X): 0.0660

Sequence: YLAWVPAIIK
- A*3101 binding information (HLA-A*3101; [1]): 0.0550
- A*6801 binding information (HLA-A*6801; [1]): 4.0000
- A*1101 (binding information) (HLA-A*1101; [1]): 0.0570
- A*1101 (HIV A11 Motif Peptides with Binding Information) (HLA-A*1101; binding value to purified HLA-A*1101 in Table XVII, unit not given): 0.0570
- A0301 binding (HLA-A*0301; HIV A03 motif peptides, Table XVI, column A0301, unit not given): 0.0770
- A*0301 binding information (HLA-A*0301; [1]): 0.0770

Sequence: TVQCTIIGIK
- A*3101 binding information (HLA-A*3101; [2]): 0.0042
- A*6801 binding information (HLA-A*6801; [2]): 0.0190
- A*1101 (binding information) (HLA-A*1101; [2]): 0.0460
- A0301 (binding information) (HLA-A*0301; [3]): 0.0021
- A*0301 binding information (HLA-A*0301; [2]): 0.0021

Sequence: IKKEKVYLA
- DR8w2 binding information (HLA-DRB1*0802 (DR8w2)): −0.0015
- DR9 binding information (HLA-DRB1*0901 (DR9)): 0.0011
- DR6w19 binding information (HLA-DRB1*1302 (DR6w19)): −0.0003
- DR7 binding information (HLA-DRB1*0701 (DR7)): −0.0005

Sequence: TVQCTIIGIR
- A*3101 binding information (HLA-A*3101; [2]): 0.0880
- A*6801 binding information (HLA-A*6801; [2]): 0.0120
- A*1101 (binding information) (HLA-A*1101; [2]): 0.0008
- A*1101 (binding information) (HLA-A*1101; Table XVII, HIV A11 motif peptides, binding value for purified HLA-A*1101, unit not given): 0.0008
- A0301 (binding information) (HLA-A*0301; [3]): 0.0008
- A*0301 binding information (HLA-A*0301; [2]): 0.0008

Sequence: KLTEERWNK
- A*3101 binding information (HLA-A*3101; [4]): 0.0680
- A*6801 binding information (HLA-A*6801; [4]): 0.0002
- A*1101 (binding information) (HLA-A*1101; [4]): 0.2700
- A*0301 binding information (HLA-A*0301; [4]): 0.0130

Sequence: FTTPDKKIIQK
- A*3101 binding information (HLA-A*3101; [1]): 0.0010
- A*6801 binding information (HLA-A*6801; [1]): 0.0273
- A*1101 (binding information) (HLA-A*1101; [1]): 0.0150
- A*1101 (binding information) (HLA-A*1101; [5]): 0.0150
- A*0301 binding information (HLA-A*0301; [1]): 0.0002

Sequence: GYELIIPDKW
- A*2401 (binding information) (HLA-A*2402; HIV A24 supermotif peptides, Table X, A*2401, unit not given): 0.0001

Sequence: QMVIIQAISPR
- A*3101 binding information (HLA-A*3101; [2]): 0.0740
- A*6801 binding information (HLA-A*6801; [2]): 0.0430
- A*1101 (binding information) (HLA-A*1101; [2]): 0.0010
- A0301 (binding information) (HLA-A*0301; HIV A03 motif peptides, Table XVI, binding value unit not given): 0.0260
- A*0301 binding information (HLA-A*0301; [2]): 0.0260

Sequence: VIFMFSALSEGATPQ
- DR4w4 binding (HLA-DRB1*0401 (DR4w4)): 0.0058
- DR2w2β2 binding (HLA-DRB5*0101 (DR2w2β2)): −0.0014
- DR7 binding (HLA-DRB1*0701 (DR7)): −0.0007
- DR5w11 binding (HLA-DRB1*1101 (DR5w11)): −0.0010

Sequence: ASCDKCQLK
- A*3101 binding information (HLA-A*3101; [1]): 0.0020
- A*6801 binding information (HLA-A*6801; [1]): 0.0001
- A*1101 (binding information) (HLA-A*1101; [1]): 0.0140
- A*1101 (binding information) (HLA-A*1101; [5]): 0.0040
- A0301 (HIV A03 Motif Peptides with Binding Information) (HLA-A*0301; HIV POL-derived A03 motif peptides, binding value for purified HLA-A*0301, unit not given): 0.0027
- A*0301 binding information (HLA-A*0301; [1]): 0.0027

Sequence: NMWQEVGKA
- A*0201 (binding information) (HLA-A*0201): 0.0022
- A*2401 (binding information) (HLA-A*2402; HIV A24 supermotif peptides, purified HLA molecule, no unit printed in Table X): 0.0001

Sequence: QARYLAVER
- A*3101 binding information (HLA-A*3101; [2]): 0.0320
- A*6801 binding information (HLA-A*6801; [2]): 0.0007
- A*1101 (binding information) (HLA-A*1101; [2]): 0.0003
- A*0301 binding information (HLA-A*0301; [2]): 0.0009

Sequence: GIPHPAGLK
- A*3101 binding information (HLA-A*3101; [1]): 0.0007
- A*6801 binding information (HLA-A*6801; [1]): 0.0110
- A*1101 (binding information) (HLA-A*1101; [1]): 0.0650
